Results: paper PMC8677033

Biological target: HIS-RBS1_1412 WT (UniProt Q8TEQ6 1297-1412)
Assay: EMSA

HIS-RBS1_1412 WT, sequence (Q8TEQ6 1297-1412): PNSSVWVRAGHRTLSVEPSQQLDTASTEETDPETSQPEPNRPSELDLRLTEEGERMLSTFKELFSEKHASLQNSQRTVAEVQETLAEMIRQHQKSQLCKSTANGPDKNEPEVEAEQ

UUUUU (ssRNA) [U(5)]: no binding.
